Data on 1 molecule can be found in patent US20230416402A1 (DRAGONFLY THERAPEUTICS, published 2023).

This experiment concerns the target HER2 (human, UniProt P04626 23-1255). The experiment is described as follows: cell-based or functional assay.

B1: A49-F3′-TriNKET-Trastuzumab (bispecific antibody, human IgG1)
heavy: EVQLVESGGGLVKPGGSLRLSCAASGFTFSSYSMNWVRQAPGKGLEWVSSISSSSSYIYYADSVKGRFTISRDNAKNSLYLQMNSLRAEDTAVYYCARGAPMGAAAGWFDPWGQGTLVTVSSASTKGPSVFPLAPSSKSTSGGTAALGCLVKDYFPEPVTVSWNSGALTSGVHTFPAVLQSSGLYSLSSVVTVPSSSLGTQTYICNVNHKPSNTKVDKKVEPKSCDKTHTCPPCPAPELLGGPSVFLFPPKPKDTLMISRTPEVTCVVVDVSHEDPEVKFNWYVDGVEVHNAKTKPREEQYNSTYRVVSVLTVLHQDWLNGKEYKCKVSNKALPAPIEKTISKAKGQPREPQVCTLPPSRDELTENQVSLTCLVKGFYPSDIAVEWESNGQPENNYKTTPPVLDSDGSFFLYSWLTVDKSRWQQGNVFSCSVMHEALHNHYTQKSLSLSPG
chain: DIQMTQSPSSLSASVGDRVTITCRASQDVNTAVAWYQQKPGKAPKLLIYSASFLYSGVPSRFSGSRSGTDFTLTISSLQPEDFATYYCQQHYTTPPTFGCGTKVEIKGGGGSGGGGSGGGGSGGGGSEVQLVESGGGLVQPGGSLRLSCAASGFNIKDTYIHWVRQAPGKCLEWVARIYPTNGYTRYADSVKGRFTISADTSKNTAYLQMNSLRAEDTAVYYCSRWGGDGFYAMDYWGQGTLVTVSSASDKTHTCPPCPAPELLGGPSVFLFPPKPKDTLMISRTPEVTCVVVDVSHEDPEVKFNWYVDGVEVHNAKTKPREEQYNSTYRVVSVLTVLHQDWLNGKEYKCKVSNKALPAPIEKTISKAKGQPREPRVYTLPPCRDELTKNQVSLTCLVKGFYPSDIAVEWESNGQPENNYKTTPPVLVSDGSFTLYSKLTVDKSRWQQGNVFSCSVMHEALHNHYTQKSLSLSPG
light: DIQMTQSPSSVSASVGDRVTITCRASQGISSWLAWYQQKPGKAPKLLIYAASSLQSGVPSRFSGSGSGTDFTLTISSLQPEDFATYYCQQGVSFPRTFGGGTKVEIKRTVAAPSPPSDEQLKSGTASVVCLLNNFYPREAKVQWKVDNALQSGNSQESVTEQDSKDSTYSLSSTLTLSKADYEKHKVYACEVTHQGLSSPVTKSFNRGEC
Regarding B1, the “EC50 in KHYG-1-CD16V cell killing of Hs578T cells (DELFIA cytotoxicity assay)” value was found to be 0.376 nM, the “EC50 in KHYG-1-CD16V cell-mediated cytolysis of BT-20 cells (DELFIA cytotoxicity assay)” value was found to be 1.16 nM, the “EC50 in NK cell-mediated killing of MCF-7 cells (DELFIA cytotoxicity assay)” value worked out at 0.878 nM and the “EC50 in NK cell-mediated lysis of ZR75-1 cells (DELFIA cytotoxicity assay)” value stood at 0.043 nM. In addition, the “EC50 in enhancing NK cell-mediated cytolysis of SKBR-3 cells (DELFIA cytotoxicity assay, 3 healthy donors)” value is 0.008 nM; the “EC50 in inducing NK cell-mediated lysis of 786-0 cells (DELFIA cytotoxicity assay)” value is 0.638 nM; the “EC50 in triggering NK cell-mediated killing of H661 cells (DELFIA cytotoxicity assay)” value amounted to 0.054 nM; the “fold higher potency than trastuzumab in triggering NK cell-mediated killing of SKBR-3 cells” value is 2.5 fold.
